Test results taken from IntAct's records for PubMed 35512704.

B1: Mothers against decapentaplegic homolog 4 (Homo sapiens), Q13485 (parent)
chain: MDNMSITNTPTSNDACLSIVHSLMCHRQGGESETFAKRAIESLVKKLKEKKDELDSLITAITTNGAHPSKCVTIQRTLDGRLQVAGRKGFPHVIYARLWRWPDLHKNELKHVKYCQYAFDLKCDSVCVNPYHYERVVSPGIDLSGLTLQSNAPSSMMVKDEYVHDFEGQPSLSTEGHSIQTIQHPPSNRASTETYSTPALLAPSESNATSTANFPNIPVASTSQPASILGGSHSEGLLQIASGPQPGQQQNGFTGQPATYHHNSTTTWTGSRTAPYTPNLPHHQNGHLQHHPPMPPHPGHYWPVHNELAFQPPISNHPAPEYWCSIAYFEMDVQVGETFKVPSSCPIVTVDGYVDPSGGDRFCLGQLSNVHRTEAIERARLHIGKGVQLECKGEGDVWVRCLSDHAVFVQSYYLDREAGRAPGDAVHKIYPSAYIKVFDLRQCHRQMQQQAATAQAAAAAQAAAVAGNIPGPGSVGGIAPAISLSAAAGIGVDDLRRLCILRMSFVKGWGPDYPRQSIKETPCWIEIHLHRALQLLDEVLHTMPIADPQPLD
partner: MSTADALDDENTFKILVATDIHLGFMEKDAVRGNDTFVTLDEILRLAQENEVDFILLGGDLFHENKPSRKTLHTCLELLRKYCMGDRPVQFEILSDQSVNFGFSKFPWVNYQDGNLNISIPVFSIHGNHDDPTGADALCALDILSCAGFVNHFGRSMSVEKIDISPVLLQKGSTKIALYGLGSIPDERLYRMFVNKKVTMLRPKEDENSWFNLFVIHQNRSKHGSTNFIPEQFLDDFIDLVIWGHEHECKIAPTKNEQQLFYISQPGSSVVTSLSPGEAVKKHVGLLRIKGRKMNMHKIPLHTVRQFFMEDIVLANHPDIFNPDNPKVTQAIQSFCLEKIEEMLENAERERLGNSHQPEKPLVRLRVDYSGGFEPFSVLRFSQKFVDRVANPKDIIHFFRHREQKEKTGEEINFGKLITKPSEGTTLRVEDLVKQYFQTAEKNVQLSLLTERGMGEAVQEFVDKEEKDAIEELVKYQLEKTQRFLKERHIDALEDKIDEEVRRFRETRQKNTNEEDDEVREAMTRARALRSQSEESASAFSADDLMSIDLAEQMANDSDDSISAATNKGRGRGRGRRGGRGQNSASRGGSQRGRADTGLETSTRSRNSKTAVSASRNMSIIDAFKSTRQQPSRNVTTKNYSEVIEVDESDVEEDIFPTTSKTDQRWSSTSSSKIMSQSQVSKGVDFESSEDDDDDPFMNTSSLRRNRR
B2: Mothers against decapentaplegic homolog 4 (Homo sapiens), Q13485 (parent)
chain: B1 chain
partner: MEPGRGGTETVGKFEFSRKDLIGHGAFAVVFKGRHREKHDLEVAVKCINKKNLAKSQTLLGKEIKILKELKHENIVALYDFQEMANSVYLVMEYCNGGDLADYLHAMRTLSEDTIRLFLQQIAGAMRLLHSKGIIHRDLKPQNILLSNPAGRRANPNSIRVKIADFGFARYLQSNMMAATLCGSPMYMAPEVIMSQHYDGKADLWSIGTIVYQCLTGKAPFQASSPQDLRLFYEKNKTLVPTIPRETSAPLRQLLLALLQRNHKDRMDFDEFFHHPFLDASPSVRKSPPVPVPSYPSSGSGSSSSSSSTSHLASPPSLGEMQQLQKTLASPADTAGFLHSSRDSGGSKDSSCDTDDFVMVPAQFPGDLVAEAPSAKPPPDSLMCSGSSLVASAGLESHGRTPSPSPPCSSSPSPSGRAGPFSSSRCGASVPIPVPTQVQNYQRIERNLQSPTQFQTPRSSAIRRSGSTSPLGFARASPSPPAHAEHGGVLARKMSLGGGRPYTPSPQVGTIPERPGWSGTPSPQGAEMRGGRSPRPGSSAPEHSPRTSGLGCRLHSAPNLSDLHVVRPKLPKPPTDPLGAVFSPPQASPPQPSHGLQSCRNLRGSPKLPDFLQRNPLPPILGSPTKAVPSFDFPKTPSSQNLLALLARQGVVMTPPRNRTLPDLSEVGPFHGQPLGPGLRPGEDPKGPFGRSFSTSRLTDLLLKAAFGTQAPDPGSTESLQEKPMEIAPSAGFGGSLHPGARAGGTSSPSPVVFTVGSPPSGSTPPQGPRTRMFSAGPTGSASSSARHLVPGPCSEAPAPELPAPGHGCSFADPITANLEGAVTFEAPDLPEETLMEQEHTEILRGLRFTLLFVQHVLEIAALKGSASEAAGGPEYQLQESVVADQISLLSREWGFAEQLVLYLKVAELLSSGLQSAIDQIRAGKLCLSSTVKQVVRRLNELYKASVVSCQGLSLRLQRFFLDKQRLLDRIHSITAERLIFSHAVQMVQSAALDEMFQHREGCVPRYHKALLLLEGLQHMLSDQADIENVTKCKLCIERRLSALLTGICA
B3: Mothers against decapentaplegic homolog 4 (Homo sapiens), Q13485 (parent)
chain: B1 chain
partner: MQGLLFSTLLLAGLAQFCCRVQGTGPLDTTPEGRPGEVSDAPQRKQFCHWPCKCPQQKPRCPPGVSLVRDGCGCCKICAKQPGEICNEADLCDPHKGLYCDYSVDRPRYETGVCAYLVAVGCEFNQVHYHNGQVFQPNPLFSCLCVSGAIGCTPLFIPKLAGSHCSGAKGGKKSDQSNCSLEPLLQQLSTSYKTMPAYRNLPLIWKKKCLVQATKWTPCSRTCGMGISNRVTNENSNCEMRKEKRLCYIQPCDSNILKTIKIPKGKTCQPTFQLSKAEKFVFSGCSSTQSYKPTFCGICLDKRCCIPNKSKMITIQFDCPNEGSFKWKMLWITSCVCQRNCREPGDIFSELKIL
B4: Mothers against decapentaplegic homolog 4 (Homo sapiens), Q13485 (parent)
chain: B1 chain
partner: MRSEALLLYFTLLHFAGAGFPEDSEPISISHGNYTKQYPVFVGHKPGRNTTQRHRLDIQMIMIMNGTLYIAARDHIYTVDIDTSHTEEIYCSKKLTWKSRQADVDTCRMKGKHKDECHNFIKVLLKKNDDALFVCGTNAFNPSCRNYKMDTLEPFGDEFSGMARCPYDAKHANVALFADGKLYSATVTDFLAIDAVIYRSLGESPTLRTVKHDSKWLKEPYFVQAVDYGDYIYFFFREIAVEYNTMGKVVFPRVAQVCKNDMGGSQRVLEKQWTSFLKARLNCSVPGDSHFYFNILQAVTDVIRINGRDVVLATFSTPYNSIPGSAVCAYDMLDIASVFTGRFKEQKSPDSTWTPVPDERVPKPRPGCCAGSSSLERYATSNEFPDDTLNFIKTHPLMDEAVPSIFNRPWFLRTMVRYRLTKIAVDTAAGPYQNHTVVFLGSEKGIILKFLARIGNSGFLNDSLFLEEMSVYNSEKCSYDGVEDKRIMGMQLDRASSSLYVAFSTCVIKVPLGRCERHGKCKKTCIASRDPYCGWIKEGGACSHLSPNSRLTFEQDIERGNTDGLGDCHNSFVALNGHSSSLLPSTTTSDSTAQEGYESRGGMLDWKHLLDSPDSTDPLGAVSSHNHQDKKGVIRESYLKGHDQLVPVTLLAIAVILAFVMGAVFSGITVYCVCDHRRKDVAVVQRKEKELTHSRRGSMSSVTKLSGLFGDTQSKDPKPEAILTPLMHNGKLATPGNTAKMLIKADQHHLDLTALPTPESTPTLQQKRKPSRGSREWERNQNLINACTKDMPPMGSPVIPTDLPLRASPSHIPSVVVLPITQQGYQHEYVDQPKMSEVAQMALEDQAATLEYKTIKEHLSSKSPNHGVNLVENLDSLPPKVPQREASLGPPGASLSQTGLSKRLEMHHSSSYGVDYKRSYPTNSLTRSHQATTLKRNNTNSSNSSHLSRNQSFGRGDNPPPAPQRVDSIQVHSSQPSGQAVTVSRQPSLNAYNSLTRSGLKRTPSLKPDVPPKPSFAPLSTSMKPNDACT

Variants of: B1
Details: with mre11_human MRE11, P49959
G386D was tested, and the “effect of a mutation on the interaction” value was “with no effect”.

Variants of: B2
Details: with ulk1_human ULK1, O75385
With G386D the “effect of a mutation on the interaction” value was “with no effect”.

Variants of: B2
Details: with ulk1_human ULK1, O75385
Remark: another data set of the same source
D351H was tested, and the “effect of a mutation on the interaction” value was “with no effect”.

Variants of: B2
Details: with ulk1_human ULK1, O75385
Remark: another data set of the same source
With R361C the “effect of a mutation on the interaction” value was “with no effect”.

Variants of: B2
Details: with ulk1_human ULK1, O75385
Remark: another data set of the same source
R361H was tested, and the “effect of a mutation on the interaction” value was “with no effect”.

Variants of: B3
Details: with ccn6_human CCN6, O95389
With D351H the “effect of a mutation on the interaction” value was “with no effect”.

Variants of: B3
Details: with ccn6_human CCN6, O95389
Remark: another data set of the same source
For R361H, the “effect of a mutation on the interaction” value was “with no effect”.

Variants of: B3
Details: with ccn6_human CCN6, O95389
Remark: another data set of the same source
In the case of R361C, the “effect of a mutation on the interaction” value is reported as “with no effect”.

Variants of: B3
Details: with ccn6_human CCN6, O95389
Remark: another data set of the same source
For G386D, the “effect of a mutation on the interaction” value was “with no effect”.

Variants of: B4
Details: with sem6a_human SEMA6A
For G386D, the “effect of a mutation on the interaction” value was “with no effect”.

Variants of: B4
Details: with sem6a_human SEMA6A
Remark: another data set of the same source
D351H was tested, and the “effect of a mutation on the interaction” value was “with no effect”.

Variants of: B4
Details: with sem6a_human SEMA6A
Remark: another data set of the same source
With R361H the “effect of a mutation on the interaction” value was “with no effect”.
